Laboratory results: patent US20210032351A1 (XDCEXPLORER SHANGHAI, published 2021)
Blank lines part the entries; values can stand above or below the binder they belong to.

Tests used:
[1] = target: T1, human EGFRvIII-hFc protein (human, UniProt P00533 25-645); test: ELISA, coated EGFRvIII-hFc, antibody 10 nM
T1 construct: extracellular domain; made in HEK293 cells, purified on protein A; also called immunogen A; hFc-tagged EGFRvIII protein; not shown: human IgG Fc fragment (hFc) of the pCpC vector
Method in brief: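 Read-out is A450 nm after TMB development (30 min, room temperature) stopped with 1.0N HCl. Plates carried EGFRvIII-hFc at 1.0 μg/mL and were incubated with purified antibody, then HRP secondary, each 2 h at 37° C.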

[2] = target: T2, human EGFR protein (wild-type), on cells (human, UniProt P00533 25-1210); test: FACS on A431 cells (wild-type EGFR), Alexa 488 secondary antibody, mean fluorescence intensity
T2 construct: whole, on cells; transfected on CHO-K1 cells; endogenous on the human cell lines; the cell is named under assay; also called wild-type EGFR; hEGFR
Procedure: The cells are washed twice with the HBSS buffer and are counted, and then the cells are diluted with the HBSS buffer to 2×10⁶ cells/ml, added with 1% goat serum blocking solution, with the percentage being the mass percentage, and incubated on ice for 30 minutes, and then centrifugally washed twice with the HBSS buffer. The collected cells are suspended to 2×10⁶ cells/mL with an FACS buffer (HBSS+1% BSA, with the percentage being the mass percentage), added to a 96-well FACS reaction plate at 100 μL/well, then added with 100 μL/well of the purified EGFRvIII antibody (samples to be tested) obtained in example 2, and incubated on ice for 2 hours. The plate is centrifugally washed twice with the FACS buffer, added with 100 μL/well of a fluorescence (Alexa 488) labeled secondary antibody (purchased from Invitrogen), and then incubated on ice for 1 hour. […] The cells are suspended in 100 μL of the FACS buffer, and the results are detected and analyzed by FACS (FACS Calibur, purchased from BD). Data analysis is performed by using the software (CellQuest) to obtain the mean fluorescence intensity (MFI) of the cells. Data is further analyzed by using the software (GraphPad Prism5) to perform data fitting and calculate EC50. […]

[3] = target: T3, human EGFRvIII-hFc protein (human, UniProt P00533 25-645); test: ELISA, EGFRvIII-hFc coated
T3 construct: extracellular domain; also called immunogen A; hFc-tagged EGFRvIII protein; not shown: human IgG Fc fragment (hFc) of the pCpC vector

- OD450 nm [1]: 0.19
- EC50 (read off the curve) [2]: ~10 nM
B1: Murine anti-75G7 (antibody, V domains shown)
VH: EVQLQQSGPELVKPGASVKIPCKASGYTFTDYNMDWVKQSHGKSLEWIGDINPNNGDTIYNQKFKGKATLTVDKSSSTAYMELRSLTSEDTAVYYCARGDYDGYYPVYYAMDYWGQGTSVTVSS
VL: ENVLTQSPAIMSASPGEKVTMTCRASSSVSSSYLHWYQQKSGASPKLWIFSTSNLAAGVPARFSGSGSGTSYSLTVSSVEAEDAATYYCQQYSGYPLTFGAGTKLELK
notes: murine hybridoma antibody; also called 75G7C6

- EC50 [3]: 0.5 nM
- Maximum OD450 value [3]: 2.5 OD450
B2: Chimeric antibody 75G7 (antibody, human IgG1, V domains shown)
VH: B1 VH
VL: B1 VL
notes: also called c75G7C6; chimeric antibody c75G7C6
